From US20230227584A1 (published 2023)

Experiments:
[1] = target: T1, human OX40 on the cell surface (activated human T cells; HeLa_hOx40_NFkB_Luc1 reporter cells) (human, UniProt P43489 29-277); experiment: cell-based or functional assay
T1 sequence: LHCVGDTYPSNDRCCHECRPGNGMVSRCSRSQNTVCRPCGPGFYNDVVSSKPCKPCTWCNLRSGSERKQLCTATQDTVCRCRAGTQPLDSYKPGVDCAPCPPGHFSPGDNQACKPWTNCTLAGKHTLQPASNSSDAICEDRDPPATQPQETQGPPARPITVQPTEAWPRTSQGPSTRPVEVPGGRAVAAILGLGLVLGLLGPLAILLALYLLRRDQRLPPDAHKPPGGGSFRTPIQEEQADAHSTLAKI

[2] = target: T2, FcRn (biotinylated, coupled to streptavidin-sepharose); experiment: FcRn affinity chromatography; retention compared to protein standards with known affinities
T2 construct: also called neonatal Fc receptor
T2 sequence (P55899 24-297, chain 1 of 2): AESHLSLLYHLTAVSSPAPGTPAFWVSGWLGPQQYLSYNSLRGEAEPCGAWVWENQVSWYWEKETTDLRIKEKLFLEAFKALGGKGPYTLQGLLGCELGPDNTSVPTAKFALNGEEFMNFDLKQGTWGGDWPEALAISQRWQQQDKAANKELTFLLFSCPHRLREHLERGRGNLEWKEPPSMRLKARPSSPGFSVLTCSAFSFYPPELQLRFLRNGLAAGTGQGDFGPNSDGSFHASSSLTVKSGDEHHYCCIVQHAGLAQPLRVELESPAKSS
T2 sequence (P61769 21-119, chain 2 of 2, further chain): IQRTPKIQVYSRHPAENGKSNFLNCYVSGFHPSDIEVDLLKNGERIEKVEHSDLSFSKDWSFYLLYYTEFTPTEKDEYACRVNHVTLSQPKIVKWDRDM
Description: For coupling, the prepared receptor was added to streptavidin-sepharose (GE Healthcare). The resulting FcRn-sepharose matrix was packed in a column housing. The column was equilibrated with 20 mM 2-(N-morpholine)-ethanesulfonic acid (MES) and 140 mM NaCl, pH 5.5 (eluent A) at a 0.5 ml/min flow rate. 30 µg of antibody samples were diluted at a volume ratio of 1: 1 with eluent A and applied to the FcRn column. The column was washed with 5 column volumes of eluent A followed by elution with a linear gradient from 20 to 100% 20 mM Tris/HCl and 140 mM NaCl, pH 8.8 (eluent B) in 35 column volumes. The analysis was performed with a column oven at 25° C. The elution profile was monitored by continuous measurement of the absorbance at 280 nm. Retention times were compared to protein standards with known affinities.

[3] = target: T1, human OX40 on the cell surface …; experiment: cell-based or functional assay; remark: listed apart in the source
[4] = target: T1, human OX40 on the cell surface …; experiment: flow cytometry, activated human PBMC gated on CD4+ T cells
[5] = target: T1, human OX40 on the cell surface …; experiment: cell-based or functional assay; remark: listed apart in the source
[6] = target: T3, human fibroblast activation protein (huFAP) on NIH/3T3-huFAP clone 19 cells (human, UniProt Q12884 1-760); experiment: flow cytometry, NIH/3T3-huFAP clone 19 cells
T3 construct: Mouse NIH/3T3 fibroblasts transfected with vector pETR4921 to express huFAP; also called cell surface FAP
Description: In another experiment, a mixture of 2 × 10⁵ NIH/3T3-huFAP clone 19 cells and HeLa cells in FACS buffer were added to each well of a round-bottom 96-well plates (TPP, Cat. No. 92097) and the binding assay was performed. Cells were first stained 20 min with LIVE/DEAD™ Fixable Aqua Dead Cell Stain (Molecular probes, Cat.No. L34957) in DPBS, followed after one washing step with 200 µL 4° C. […] Afterwards the cells were washed once with 200 µL FACS buffer at 4° C. and resuspended by a short vortex. Cells were further stained with 50 µL/well of 4° C. cold secondary antibody solution containing Phycoerythrin (PE)-conjugated AffiniPure anti-human IgG Fcy-fragment-specific goat IgG F(ab′)2 fragment (Jackson ImmunoResearch, Cat. No. 109-116-098) and incubated for 30 minutes at 4° C. in the dark. Samples were finally resuspended in 100 µL/well FACS-buffer and acquired the same day using with BD Fortessa running FACS Diva software.

[7] = target: T1, human OX40 on the cell surface …; experiment: cell-based or functional assay; remark: listed apart in the source
[8] = target: human FAP (soluble second analyte, SPR) (human, UniProt Q12884 26-760); experiment: SPR (Biacore T200), biotinylated human GITR Fc(kih) on SA chip, bispecific at 200 nM, then human FAP at 500 nM
Description: The capacity of binding simultaneously human GITR Fc(kih) and human FAP can be assessed by surface plasmon resonance (SPR). All SPR experiments are performed on a Biacore T200 at 25° C. with HBS-EP as running buffer (0.01 M HEPES pH 7.4, 0.15 M NaCl, 3 mM EDTA, 0.005% Surfactant P20, Biacore, Freiburg/Germany). […] Immobilization levels up to 1000 resonance units (RU) are used. The bispecific antibodies targeting GITR and FAP are passed at a concentration range of 200 nM with a flow of 30 µL/minute through the flow cells over 90 seconds and dissociation was set to zero sec. Human FAP is injected as second analyte with a flow of 30 µL/minute through the flow cells over 90 seconds at a concentration of 500 nM. The dissociation is monitored for 120 sec. Bulk refractive index differences are corrected for by subtracting the response obtained in a reference flow cell, where no protein is immobilized.

Binder | EC50 of increased TCB mediated cytokine secretion following FAP-OX40 costimulation of primary human PBMCs [1] | FcRn affinity [2] | EC50 of NFκB activation (luciferase), HeLa_hOx40_NFkB_Luc1, w/ hu FAP [3] | EC50 of NFκB activation (luciferase), HeLa_hOx40_NFkB_Luc1, w/o [3] | EC50 [4] | EC50 of CD25 upregulation on CD4+ T cells, suboptimal TCR stimulation of human PBMC with NIH/3T3-huFAP cells [5] | EC50 [6] | EC50 of suppression of FoxP3 induction (FoxP3 MFI) on TGFβ-exposed CD4 T cells, FAP-coated beads [7] | binding result [8]
P1AF6455 OX40(CLC563) x FAP(1G1a_EPKSCS) 3+1 (bispecific antibody, human IgG1, kappa, L234A L235A, Human IgG1 Fc, knob-into-hole, PGLALA; also called CLC-563, S-variant 3+1) heavy 1: not shown heavy 2: not shown light 1: not shown light 2: EIVLTQSPATLSLSPGERATLSCRASESVDNYGLSFINWFQQKPGQAPRLLIYGTSNRGSGIPARFSGSGSGTDFTLTISSLEPEDFAVYFCQQSNEVPYTFGGGTKVEIKSSASTKGPSVFPLAPSSKSTSGGTAALGCLVKDYFPEPVTVSWNSGALTSGVHTFPAVLQSSGLYSLSSVVTVPSSSLGTQTYICNVNHKPSNTKVDKKVEPKSCS | 0.058 nM | -0.1 | 0.2 nM | 0.8 nM | 1.47 nM | 0.003 nM | 1.71 nM | 0.25 nM | –
P1AF6454 OX40 (CLC563) x FAP (1G1a_EPKSCD) (3+1) C-terminal crossfab fusion (bispecific antibody, human IgG1, kappa, L234A L235A, 3+1 format; Human IgG1 Fc, knob-into-hole, PGLALA; VL-CH1 chain ends in EPKSCD; also called CLC-563, D-variant 3+1; 3+1 CLC563/H212-D) heavy 1: not shown heavy 2: not shown light 1: not shown light 2: EIVLTQSPATLSLSPGERATLSCRASESVDNYGLSFINWFQQKPGQAPRLLIYGTSNRGSGIPARFSGSGSGTDFTLTISSLEPEDFAVYFCQQSNEVPYTFGGGTKVEIKSSASTKGPSVFPLAPSSKSTSGGTAALGCLVKDYFPEPVTVSWNSGALTSGVHTFPAVLQSSGLYSLSSVVTVPSSSLGTQTYICNVNHKPSNTKVDKKVEPKSCD | 0.144 nM | -0.1 | 0.2 nM | 1.9 nM | 1.64 nM | 0.001 nM | 1.22 nM | 0.11 nM | –
P1AG1036 GITR(852.2) x FAP (4B9_EPKSCS) (2+1) C-terminal crossfab fusion (bispecific antibody, human IgG1, kappa, L234A L235A, 2+1 format; Human IgG1 Fc, knob-into-hole, PGLALA; VL-CH1 chain ends in EPKSCS) heavy 1: not shown heavy 2: EVQLVESGGGLVQPGGSLRLSCAASGFTFSSYTMKWVRQTPGKGLEWVSVISADGGTTDHAASVKGRFTVSRDNSKNMLYLQMNSLRAEDTAIYYCAKDRANDWITGASFDYWGQGALVTVSSASTKGPSVFPLAPSSKSTSGGTAALGCLVEDYFPEPVTVSWNSGALTSGVHTFPAVLQSSGLYSLSSVVTVPSSSLGTQTYICNVNHKPSNTKVDEKVEPKSCDKTHTCPPCPAPEAAGGPSVFLFPPKPKDTLMISRTPEVTCVVVDVSHEDPEVKFNWYVDGVEVHNAKTKPREEQYNSTYRVVSVLTVLHQDWLNGKEYKCKVSNKALGAPIEKTISKAKGQPREPQVCTLPPSRDELTKNQVSLSCAVKGFYPSDIAVEWESNGQPENNYKTTPPVLDSDGSFFLVSKLTVDKSRWQQGNVFSCSVMHEALHNHYTQKSLSLSP light 1: DIQMTQSPSSLSASVGDRVTITCRASQSINSYLNWYQQKPGNAPKLLIYAASSLQSGVPSRFSGSGSGTEFTLTISSLQPEDLATYYCQQARSFPLTFGGGTKVEIKRTVAAPSVFIFPPSDRKLKSGTASVVCLLNNFYPREAKVQWKVDNALQSGNSQESVTEQDSKDSTYSLSSTLTLSKADYEKHKVYACEVTHQGLSSPVTKSFNRGEC light 2: EIVLTQSPGTLSLSPGERATLSCRASQSVTSSYLAWYQQKPGQAPRLLINVGSRRATGIPDRFSGSGSGTDFTLTISRLEPEDFAVYYCQQGIMLPPTFGQGTKVEIKSSASTKGPSVFPLAPSSKSTSGGTAALGCLVKDYFPEPVTVSWNSGALTSGVHTFPAVLQSSGLYSLSSVVTVPSSSLGTQTYICNVNHKPSNTKVDKKVEPKSCS | – | – | – | – | – | – | – | – | binds
P1AG1039 GITR(852.2) x FAP (4B9_EPKSCG) (2+1) C-terminal crossfab fusion (bispecific antibody, human IgG1, kappa, L234A L235A, 2+1 format; Human IgG1 Fc, knob-into-hole, PGLALA; VL-CH1 chain ends in EPKSCG) heavy 1: not shown heavy 2: EVQLVESGGGLVQPGGSLRLSCAASGFTFSSYTMKWVRQTPGKGLEWVSVISADGGTTDHAASVKGRFTVSRDNSKNMLYLQMNSLRAEDTAIYYCAKDRANDWITGASFDYWGQGALVTVSSASTKGPSVFPLAPSSKSTSGGTAALGCLVEDYFPEPVTVSWNSGALTSGVHTFPAVLQSSGLYSLSSVVTVPSSSLGTQTYICNVNHKPSNTKVDEKVEPKSCDKTHTCPPCPAPEAAGGPSVFLFPPKPKDTLMISRTPEVTCVVVDVSHEDPEVKFNWYVDGVEVHNAKTKPREEQYNSTYRVVSVLTVLHQDWLNGKEYKCKVSNKALGAPIEKTISKAKGQPREPQVCTLPPSRDELTKNQVSLSCAVKGFYPSDIAVEWESNGQPENNYKTTPPVLDSDGSFFLVSKLTVDKSRWQQGNVFSCSVMHEALHNHYTQKSLSLSP light 1: DIQMTQSPSSLSASVGDRVTITCRASQSINSYLNWYQQKPGNAPKLLIYAASSLQSGVPSRFSGSGSGTEFTLTISSLQPEDLATYYCQQARSFPLTFGGGTKVEIKRTVAAPSVFIFPPSDRKLKSGTASVVCLLNNFYPREAKVQWKVDNALQSGNSQESVTEQDSKDSTYSLSSTLTLSKADYEKHKVYACEVTHQGLSSPVTKSFNRGEC light 2: EIVLTQSPGTLSLSPGERATLSCRASQSVTSSYLAWYQQKPGQAPRLLINVGSRRATGIPDRFSGSGSGTDFTLTISRLEPEDFAVYYCQQGIMLPPTFGQGTKVEIKSSASTKGPSVFPLAPSSKSTSGGTAALGCLVKDYFPEPVTVSWNSGALTSGVHTFPAVLQSSGLYSLSSVVTVPSSSLGTQTYICNVNHKPSNTKVDKKVEPKSCG | – | – | – | – | – | – | – | – | binds
